Results as given in patent US20220340657A1 (L AND L BIO CO LTD NINGBO CHINA, published 2022).
Substitutions are numbered along the chain they refer to. Like-named read-outs stand apart in the source and are kept apart here.

B1: humanized anti-human LAG-3 antibody Ab2317 (antibody, human IgG4 S228P, kappa, V domains shown)
VH: QVQLVQSGAEVKKPGASVKVSCKASGYTFTDYEMHWVKQAPGQGLEWIGGIDPETEGIAYNQKFRGRATLTADKSTSTAYMELRSLRSDDTAVYYCTNSNYYGGREAWFAYWGQGTLVTVSS
VL: DIQMTQSPSSLSASVGDRVTITCRASQDIGSSLNWYQQKPGKAPKRLIYATSSLDSGVPSRFSGSRSGSDFTLTISSLQPEDFATYYCLQYVTSPLTFGGGTKVEIKR
notes: LG2317 / LG2343, human kappa / hIgG4
B2: humanized antibody Ab2325 (antibody, human IgG4 S228P, kappa, V domains shown)
VH: B1 VH with I48M, L70M, A72T, K74T, T97A
VL: B1 VL
notes: LG2317 / LG2348, human kappa / hIgG4

What was measured:
cyno-LAG3-hFc [1] = target: T1, cyno-LAG3-hFc (cynomolgus monkey); experiment: ELISA
T1 construct: Bought product; also called cynomolgus monkey LAG-3

human LAG-3-hFc = target: T2, human LAG-3-hFc (human, UniProt P18627 23-422); experiment: ELISA
T2 construct: range 23-422; also called hLAG-3-hFc
T2 sequence (looked up): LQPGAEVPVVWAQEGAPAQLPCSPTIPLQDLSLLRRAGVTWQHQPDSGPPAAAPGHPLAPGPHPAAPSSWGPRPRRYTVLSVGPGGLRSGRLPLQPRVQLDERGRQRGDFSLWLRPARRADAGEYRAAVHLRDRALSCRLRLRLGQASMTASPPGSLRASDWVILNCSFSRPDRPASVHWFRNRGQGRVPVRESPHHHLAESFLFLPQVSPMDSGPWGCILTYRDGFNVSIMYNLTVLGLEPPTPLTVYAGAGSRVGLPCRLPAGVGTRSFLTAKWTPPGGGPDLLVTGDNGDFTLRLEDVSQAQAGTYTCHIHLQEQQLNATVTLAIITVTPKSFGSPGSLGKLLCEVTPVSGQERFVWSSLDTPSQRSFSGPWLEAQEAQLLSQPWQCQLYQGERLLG
Experimental: (§1) After discarding the liquid, a blocking solution of 5% skimmed milk (Bright skimmed milk powder) diluted with PBS was added at 230 μl per well, followed by incubating at 37° C. for 3 hours or 4° C. overnight (16-18 hours) for blocking. Subsequently, the blocking solution was discarded, and the micropiate was washed 5 times with PBST buffer (pH 7.4 PBS containing 0.05% tweeen-20). Then 50 μl/well of the supernatant (containing the antibody to be tested) or a starting concentration of 10 μg/ml of the antibody to be tested, which was diluted 5 times in gradient, was added, followed by incubating the mixture for 1 hour at 37° C. […] After washing the microplate 5 times with PBST, 50 μl/well TIMB chromogenic substrate (KPL, Cat. No.: 52-00-03) was added, and then incubated for […] at room temperature. Finally, 50 μl/well of 1 M H₂SO₄ was added to stop the reaction. The absorbance value at 450 nm was read by […] GO microplate reader (ThermoFisher, Cat. No.: 51119200). The clones with high affinity were selected according to the OD value or the EC₅₀ value was calculated (for antibodies with known concentrations).

hLAG-3-D12-hFc = target: T3, hLAG-3-D12-hFc (human, UniProt P18627 23-239); experiment: ELISA
T3 construct: range 23-239
T3 sequence (looked up): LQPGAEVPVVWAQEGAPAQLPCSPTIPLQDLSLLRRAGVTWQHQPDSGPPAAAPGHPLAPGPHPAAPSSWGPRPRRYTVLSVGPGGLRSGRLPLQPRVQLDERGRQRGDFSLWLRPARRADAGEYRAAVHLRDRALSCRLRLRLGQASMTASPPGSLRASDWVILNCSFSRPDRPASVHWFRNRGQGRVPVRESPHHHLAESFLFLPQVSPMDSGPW
Experimental: as §1

cyno-LAG3-hFc [2] = target: T1, cyno-LAG3-hFc; experiment: ELISA; remark: listed apart in the source
Experimental: as §1

[3] = target: T4, murine LAG-3 his tagged (mLAG-3-his) (mouse, UniProt Q61790 23-406); experiment: ELISA
T4 construct: range 23-406; also called mouse LAG-3
T4 sequence: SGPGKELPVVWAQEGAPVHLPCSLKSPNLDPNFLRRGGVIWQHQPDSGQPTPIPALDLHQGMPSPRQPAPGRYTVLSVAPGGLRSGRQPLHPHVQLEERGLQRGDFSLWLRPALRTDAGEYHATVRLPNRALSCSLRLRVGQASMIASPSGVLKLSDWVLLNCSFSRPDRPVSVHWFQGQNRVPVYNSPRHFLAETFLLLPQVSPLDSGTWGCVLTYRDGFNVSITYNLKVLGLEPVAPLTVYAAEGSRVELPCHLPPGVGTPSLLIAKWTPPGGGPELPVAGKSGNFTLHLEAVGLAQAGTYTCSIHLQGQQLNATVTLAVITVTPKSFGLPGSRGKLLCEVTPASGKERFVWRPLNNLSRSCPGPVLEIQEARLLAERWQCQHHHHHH
Experimental: as §1

human LAG-3-his [4] = target: T5, human LAG-3-his (human, UniProt P18627 23-422); experiment: Biacore T200, antibody captured on Protein A, LAG-3-his in solution
T5 construct: range 23-422; also called hLAG-3-his; hLAG-3
T5 sequence: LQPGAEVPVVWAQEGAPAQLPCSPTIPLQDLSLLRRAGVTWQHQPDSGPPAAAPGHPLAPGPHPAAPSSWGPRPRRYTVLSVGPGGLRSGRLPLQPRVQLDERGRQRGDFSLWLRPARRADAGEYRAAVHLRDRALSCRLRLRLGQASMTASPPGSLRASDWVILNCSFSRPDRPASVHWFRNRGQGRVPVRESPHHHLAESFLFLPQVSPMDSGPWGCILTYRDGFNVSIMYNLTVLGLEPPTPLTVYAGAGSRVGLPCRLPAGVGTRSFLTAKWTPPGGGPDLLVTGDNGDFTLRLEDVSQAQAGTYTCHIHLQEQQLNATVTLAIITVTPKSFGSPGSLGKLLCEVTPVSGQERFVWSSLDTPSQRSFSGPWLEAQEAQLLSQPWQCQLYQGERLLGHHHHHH
Experimental: First, Protein A (Thermo Pierce, Cat. No.: 21181) was coupled to the biosensor chip CMS (GE, Cat. No.: BR-4005-30) using pH 7.4 running buffer HBS-EP+ (10 mM HEPES, 150 mM NaCl, 3 mM EDTA, and 0.05% P20). The chip was activated with a freshly prepared 50 mM NHS (N-hydroxysuccinimide) and 200 mM EDC (1-ethyl-3-(3-dimethylaminopropyl) carbodiimide hydrochloride) followed by injection of 10 μg/ml Protein A prepared with 10 mM NaAc (pH4.0). […] The flow rate was […], binding time was 180 s, and dissociation time was 300 s, After the experiment, the chip was washed for 30 s with 10 mM Glycine-HCl (pH 1.5) at a flow rate of 30 μl/min. The experimental data were fitted with the 1:1 Langmuir model using the software of Biacore T200 evaluation version 3.0 (GE), and the value of affinity KD was obtained.

human LAG-3-his [5] = target: T5, human LAG-3-his; experiment: ELISA on coated human LAG-3, OD450 (Example 3, Example 13) [panel a]
human LAG-3-his [6] = target: T5, human LAG-3-his; experiment: as above; remark: listed apart in the source

| Binder | fold weaker than binding to human LAG-3 (cyno-LAG3-hFc [1]) [times] | EC50 (human LAG-3-hFc) [nM] | EC50 (hLAG-3-D12-hFc) [nM] | EC50 (cyno-LAG3-hFc [2]) [nM] | binding result [3] | Kd (human LAG-3-his [4]) [nM] | EC50 (read off the curve) (human LAG-3-his [5]) [nM] | EC50 (read off the curve) (human LAG-3-his [6]) [nM] |
| --- | --- | --- | --- | --- | --- | --- | --- | --- |
| B1 | > 200 | 0.25 | 2.59 | 40.2 | no binding | 0.168 | ~0.3 | ~0.3 |
| B2 | > 200 | 0.4 | 2.01 | 44.5 | no binding | 0.19 | – | – |
